From US20240400618A1 (GRIFOLS DIAGNOSTIC SOLUTIONS, published 2024)
Read-outs that look alike come from different tables or passages of the source.

Tests used:
pxAM-FLS-SSAS-TB-His [1] = target: T1, pxAM-FLS-SSAS-TB-His (SARS-CoV-2, UniProt P0DTC2 15-1213)
pxAM-FLS-SSAS-TB-His [2] = target: T1, pxAM-FLS-SSAS-TB-His; remark: listed apart in the source
[3] = target: US/CA, Epsilon, pxENB9-FLS-B.1.427 (SARS-CoV-2, UniProt P0DTC2 15-1213)
[4] = target: Brazil, Gamma, pxENB9-FLS-P.1 (SARS-CoV-2, UniProt P0DTC2 15-1213)
[5] = target: India, Delta, pxENB9-FLS-B.1.617.2 (SARS-CoV-2, UniProt P0DTC2 15-1213)
pxAM-FLS-SSAS-TB-His [6] = target: T1, pxAM-FLS-SSAS-TB-His; remark: listed apart in the source

B1: pxEBN4-ACE2-AAA-His (receptor)
chain: QSTIEEQAKTFLDKFNHEAEDLFYQSSLASWNYNTNITEENVQNMNNAGDKWSAFLKEQSTLAQMYPLQEIQNLTVKLQLQALQQNGSSVLSEDKSKRLNTILNTMSTIYSTGKVCNPDAPAECLLLEPGLNEIMANSLDYNERLWAWESWRSEVGKALRPLYEEYVVLKNEMARANHYEDYGDYWRGDYEVNGVDGYDYSRGQLIEDVEHTFEEIKPLYEHLHAYVRAKLMNAYPSYISPIGCLPAHLLGDMWGRFWTNLYSLTVPFGQKPNIDVTDAMVDQAWDAQRIFKEAEKFFVSVGLPNMTQGFWENSMLTDPGNVQKAVCHPTAWDLGKGDFRILMCTKVTMDDFLTAHHEMGHIQYDMAYAAQPFLLRNGANEGFHEAVGEIMSLSAATPKHLKSIGLLSPDFQEDNETEINFLLKQALTIVGTLPFTYMLEKWRWMVFKGEIPKDQWMKKWWEMKREIVGVVEPVPHDETYCDPASLFHVSNDYSFIRYYTRTLYQFQFQEALCQAAKHEGPLHKCDISNSTEAGQKLFNMLRLGKSEPWTLALENVVGAKNMNVRPLLNYFEPLFTWLKDQNKNSFVGWSTDWSPYADGGGSHHHHHHHH
Kd (pxAM-FLS-SSAS-TB-His [1]): 0.524 nM
Kd (pxAM-FLS-SSAS-TB-His [2]): 5.62 nM
Kd [3]: 1.3 nM
Kd [4]: 0.00159 nM
Kd [5]: 2.55 nM
Kd (pxAM-FLS-SSAS-TB-His [6]): 0.13 nM
